Literature values in PMC11417995.
Each block holds one substance with its values, some of them ahead of it.

Tests used:
ubiquitin (Homo sapiens) [1] = target: ubiquitin (Homo sapiens) (UniProt P0CG47); experiment: TR-FRET
ubiquitin (Homo sapiens) [2] = target: ubiquitin (Homo sapiens) (UniProt P0CG47); experiment: NMR
ubiquitin (Homo sapiens) [3] = target: ubiquitin (Homo sapiens) (UniProt P0CG47); experiment: SPR

UBE2K, sequence (P61086 2-200): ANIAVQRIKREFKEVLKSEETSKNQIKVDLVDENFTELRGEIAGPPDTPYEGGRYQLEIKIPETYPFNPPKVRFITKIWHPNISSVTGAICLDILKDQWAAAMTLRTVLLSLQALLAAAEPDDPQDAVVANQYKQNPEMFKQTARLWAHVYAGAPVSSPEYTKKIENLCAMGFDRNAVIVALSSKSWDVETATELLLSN
CDC34A, sequence (P49427 whole entry): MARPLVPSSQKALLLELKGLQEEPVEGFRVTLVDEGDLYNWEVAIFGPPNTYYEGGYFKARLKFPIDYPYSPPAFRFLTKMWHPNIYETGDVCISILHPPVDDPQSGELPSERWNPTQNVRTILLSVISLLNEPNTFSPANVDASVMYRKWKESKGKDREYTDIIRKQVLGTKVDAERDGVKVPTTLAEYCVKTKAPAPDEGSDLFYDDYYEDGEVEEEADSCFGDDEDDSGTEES
UBE2K UBA, sequence (P61086 157-200): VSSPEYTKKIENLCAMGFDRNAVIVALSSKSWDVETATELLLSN

Kd (ubiquitin (Homo sapiens) [1]): 14 µM
Substance: CDC34A (from UniProt P49427)

Kd (ubiquitin (Homo sapiens) [2]): 1250 µM
Substance: UBE2K (from UniProt P61086)

Kd (ubiquitin (Homo sapiens) [3]): 400 µM
Substance: UBE2K UBA (from UniProt P61086)
